Series [1] has as its target T1, MDR/P-gp (Homo sapiens, UniProt P08183). The experiment in a line: MDR pump substrate assessment. Conditions: data not shown. It counts as in vitro ADME.
The target in the next series is T2, BCRP (Homo sapiens, UniProt Q9UNQ0).
T2 sequence (Q9UNQ0 1-655): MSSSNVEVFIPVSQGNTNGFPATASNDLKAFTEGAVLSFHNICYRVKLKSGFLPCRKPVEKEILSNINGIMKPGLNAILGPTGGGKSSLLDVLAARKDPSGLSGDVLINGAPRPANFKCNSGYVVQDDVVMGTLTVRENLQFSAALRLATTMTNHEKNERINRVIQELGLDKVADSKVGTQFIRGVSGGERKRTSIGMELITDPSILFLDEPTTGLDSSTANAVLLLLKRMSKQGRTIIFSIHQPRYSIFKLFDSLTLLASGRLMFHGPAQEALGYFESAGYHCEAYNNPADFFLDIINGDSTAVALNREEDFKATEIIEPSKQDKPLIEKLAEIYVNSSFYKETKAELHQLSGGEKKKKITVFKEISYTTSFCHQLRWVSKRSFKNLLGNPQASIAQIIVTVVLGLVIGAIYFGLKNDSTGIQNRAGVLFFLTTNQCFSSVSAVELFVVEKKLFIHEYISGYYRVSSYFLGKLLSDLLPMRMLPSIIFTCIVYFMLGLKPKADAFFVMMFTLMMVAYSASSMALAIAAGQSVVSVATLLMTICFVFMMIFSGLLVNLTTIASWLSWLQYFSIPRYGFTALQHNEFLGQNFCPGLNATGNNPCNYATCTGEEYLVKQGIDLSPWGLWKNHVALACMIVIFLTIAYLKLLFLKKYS
The series can be described thus: BCRP substrate assessment. Conditions: data not shown. The series is classed as in vitro ADME.

Series [2] concerns the target T1, MDR/P-gp. Conditions: cited from earlier work.
The subject of series [3] is 786-OS3 renal carcinoma cells. The experiment in a line: 786-OS3/PBMC renal cell carcinoma xenograft model, ARX305 and pembrolizumab. It counts as in vivo, NCG mice. Particulars: study day 36, 5.0 mg/kg dose of pembrolizumab alone, IP QW × 4. The procedure: ARX305 in combination with a checkpoint inhibitor, such as a PD-1/PD-L1 inhibitor, were tested in a renal cell carcinoma (RCC) model. For RCC, ARX305 in combination of pembrolizumab (PD-1 inhibitor) were evaluated in a cell line-derived xenograft tumor model: 786-OS3.
Female NCG mice were housed five (5) per cage in a pathogen-free, limited access room. Food and water were provided ad libitum. Mice were subcutaneously inoculated in the right flank with 5×10^6 786-OS3 renal carcinoma cells mixed with Matrigel. Tumor volumes were measured twice weekly. When tumors reached from about 175 mm^3 to about 200 mm^3 in size, mice were randomized into five (5) groups of 10 mice with approximately equal average tumor volumes. Cryopreserved peripheral blood mononuclear cells (PBMCs) from a single healthy donor were thawed and cultured in Roswell Park Memorial Institut (RPMI) medium+10% fetal bovine serum at 37° C. for 24 hours. PBMCs were harvested and intraperitoneally injected into tumor-bearing mice (10^7/mouse). After 24 hours, mice were injected with vehicle, pembrolizumab (5 mg/kg), ARX305 (0.3 mg/kg), or pembrolizumab (5 mg/kg)+ARX305 (0.3 mg/kg). Dosing was repeated for pembrolizumab weekly for a total of 4 doses and ARX305 every other week for a total of 2 doses. […] Tumor volumes were continually measured twice weekly and FIG. 15 show mean tumor volumes +/−SEM for each group.

The target of series [4] is T3, CD70 on the surface of human tumor cell lines (human, UniProt P32970 1-193).
T3 sequence (looked up): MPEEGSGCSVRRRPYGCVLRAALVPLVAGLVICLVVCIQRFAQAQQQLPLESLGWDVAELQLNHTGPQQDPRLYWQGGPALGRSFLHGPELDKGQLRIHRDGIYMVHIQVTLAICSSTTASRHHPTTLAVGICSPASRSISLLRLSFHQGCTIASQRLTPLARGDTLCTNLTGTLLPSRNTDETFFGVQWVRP
The experiment in a line: cell-based or functional assay.

Series [5] addresses T4, cynomolgus CD70 protein (cynomolgus, UniProt A0A2K5WTU9 39-190).
T4 chain: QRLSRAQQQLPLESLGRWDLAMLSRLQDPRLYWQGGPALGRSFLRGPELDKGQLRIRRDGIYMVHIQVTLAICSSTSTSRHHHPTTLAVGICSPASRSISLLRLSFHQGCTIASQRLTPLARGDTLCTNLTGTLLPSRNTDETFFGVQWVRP
The experiment in a line: SPR. Background: SPR reads the build-up and loss of mass on a sensor chip optically.

Another series deals with T5, human CD70 protein (human, UniProt P32970 39-193).
T5 chain: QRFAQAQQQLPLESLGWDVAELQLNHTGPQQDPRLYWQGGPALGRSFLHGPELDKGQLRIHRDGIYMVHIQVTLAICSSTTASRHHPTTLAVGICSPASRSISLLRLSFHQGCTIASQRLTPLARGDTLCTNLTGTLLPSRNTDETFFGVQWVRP
The series can be described thus: SPR.

Another series addresses T6, mouse CD70 protein (mouse, UniProt O55237 45-195, limits assumed).
T6 construct: SPR analyte; construct not described; also called rodent CD70
T6 sequence (looked up): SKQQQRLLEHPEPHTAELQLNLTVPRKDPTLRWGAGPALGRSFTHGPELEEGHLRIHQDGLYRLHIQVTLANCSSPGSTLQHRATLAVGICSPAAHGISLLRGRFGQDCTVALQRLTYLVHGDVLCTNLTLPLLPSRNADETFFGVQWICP
The series can be described thus: SPR (Biacore), ADC captured by anti-human IgG (Fc) on CM5 chip, CD70 as analyte. On the procedure:
(§1) Surface plasmon resonance assays were developed in which anti-human IgG (Fc) was diluted to 25 μg/mL in immobilization buffer ([…] Sodium Acetate, pH 5.0) and injected to an activated CM5 sensor chip for 360 seconds at a flow rate of 10 μL/minute. […] After each cycle of interaction analysis, the sensor chip surface was regenerated with 3M magnesium chloride at a flow rate of 20 uL/minute for 30 seconds. Affinity analysis was performed using Biacore Insight Evaluation software, reference channel was used for background subtraction, and a 1:1 binding method was used for curve fitting.

In series [6] the target is T7, cynomolgus CD70 protein (cynomolgus, UniProt A0A2K5WTU9 39-190).
T7 construct: SPR analyte; construct not described
T7 sequence: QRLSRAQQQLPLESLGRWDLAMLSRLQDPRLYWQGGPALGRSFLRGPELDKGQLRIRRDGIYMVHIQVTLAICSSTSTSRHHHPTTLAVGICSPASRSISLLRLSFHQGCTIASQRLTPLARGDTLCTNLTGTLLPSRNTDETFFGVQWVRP
The experiment in a line: SPR (Biacore), ADC captured by anti-human IgG (Fc) on CM5 chip, CD70 as analyte, 1:1 fit. On the procedure:
as §1

Square brackets hold non-standard residues; d marks the D form. Peptide text beside a SMILES is read from it. * marks the point of attachment. Dolaproine = CO[C@@H]([C@@H]1CCCN1)[C@@H](C)C(=O)O; Dil = CC[C@H](C)[C@H](NC)[C@@H](CC(=O)O)OC; X1 = CC(C)[C@@H](C(=O)*)N(C)CCOCCOCCOCCON; X2 = C[C@@H](N*)[C@@H](O)c1ccccc1; NMeV = CN[C@H](C(=O)O)C(C)C

T1 sequence (P08183 whole entry): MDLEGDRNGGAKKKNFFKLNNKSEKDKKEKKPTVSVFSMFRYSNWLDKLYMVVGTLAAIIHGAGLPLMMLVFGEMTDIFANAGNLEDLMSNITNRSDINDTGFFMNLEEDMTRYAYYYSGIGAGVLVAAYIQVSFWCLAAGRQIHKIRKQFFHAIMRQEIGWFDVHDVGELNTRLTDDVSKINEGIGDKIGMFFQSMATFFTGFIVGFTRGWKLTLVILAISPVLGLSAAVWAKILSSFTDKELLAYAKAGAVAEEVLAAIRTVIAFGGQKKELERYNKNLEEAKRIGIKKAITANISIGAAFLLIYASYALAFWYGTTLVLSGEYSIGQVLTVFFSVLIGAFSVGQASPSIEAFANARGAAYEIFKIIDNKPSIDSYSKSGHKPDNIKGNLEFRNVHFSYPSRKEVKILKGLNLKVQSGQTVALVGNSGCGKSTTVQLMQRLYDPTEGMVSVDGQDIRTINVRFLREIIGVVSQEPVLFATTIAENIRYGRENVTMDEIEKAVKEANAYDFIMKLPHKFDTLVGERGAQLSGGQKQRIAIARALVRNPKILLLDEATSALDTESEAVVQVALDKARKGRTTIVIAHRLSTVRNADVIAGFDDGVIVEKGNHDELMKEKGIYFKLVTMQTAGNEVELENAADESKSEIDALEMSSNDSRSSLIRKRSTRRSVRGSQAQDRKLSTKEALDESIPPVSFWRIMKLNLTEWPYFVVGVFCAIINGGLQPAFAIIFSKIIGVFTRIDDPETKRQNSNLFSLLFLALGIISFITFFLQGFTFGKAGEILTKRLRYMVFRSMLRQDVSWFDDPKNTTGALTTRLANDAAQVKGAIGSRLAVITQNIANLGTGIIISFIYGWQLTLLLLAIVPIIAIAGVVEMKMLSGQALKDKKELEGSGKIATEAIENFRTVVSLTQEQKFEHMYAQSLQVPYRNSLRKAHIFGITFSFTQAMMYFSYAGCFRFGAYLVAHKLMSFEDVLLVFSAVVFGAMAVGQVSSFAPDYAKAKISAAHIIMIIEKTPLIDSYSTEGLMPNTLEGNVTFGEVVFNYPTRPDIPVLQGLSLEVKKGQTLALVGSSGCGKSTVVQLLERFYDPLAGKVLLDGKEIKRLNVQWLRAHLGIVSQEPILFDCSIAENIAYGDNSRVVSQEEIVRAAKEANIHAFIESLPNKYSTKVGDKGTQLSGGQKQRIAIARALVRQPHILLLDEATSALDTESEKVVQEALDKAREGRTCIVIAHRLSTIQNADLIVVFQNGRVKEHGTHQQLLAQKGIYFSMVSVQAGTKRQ

Take `CC[C@H](C)[C@@H]([C@@H](CC(=O)N1CCC[C@H]1[C@H](OC)[C@@H](C)C(=O)N[C@@H](Cc1ccccc1)C(=O)O)OC)N(C)C(=O)[C@@H](NC(=O)[C@H](C(C)C)N(C)CCOCCOCCOCCON)C(C)C` [AS269, ((2R,3R)-3-((S)-1-((3R,4S,5S)-4-((S)-2-((S)-14-(aminooxy)-2-isopropyl-3-methyl-6,9,12-trioxa-3-azatetradecanamido)-N,3-dimethylbutanamido)-3-methoxy-5-methylheptanoyl)pyrrolidin-2-yl)-3-methoxy-2-methylpropanoyl)-L-phenylalanine] (X1-V[Dil][Dolaproine]F-OH): the “substrate for MDR/P-gp” value on MDR/P-gp [1] is reported as “not a substrate”. Further, on BCRP, the “substrate for BCRP” value was “not a substrate”.
`CC[C@H](C)[C@@H]([C@@H](CC(=O)N1CCC[C@H]1[C@H](OC)[C@@H](C)C(=O)N[C@H](C)[C@@H](O)c1ccccc1)OC)N(C)C(=O)[C@@H](NC(=O)[C@@H](NC)C(C)C)C(C)C` [MMAE, Monomethyl auristatin E] (H-[NMeV]V[Dil][Dolaproine]-X2): on MDR/P-gp [2], the “substrate for MDR pumps” value is “known substrate”.
With “pembrolizumab: PD-1 inhibitor [reference compound]”, the “tumor growth inhibition (TGI)” value in [3] stood at 6%.

B1: anti-CD70-AS269 ADC (antibody, human IgG1, kappa, V domains shown)
VH: EVQLVQSGAEVKKPGATVKISCKVSGYTFTDYYMNWVQQAPGKGLEWMGIINPYNGGTHYNQKFKGRVTITADTSTDTAYMELSSLRSEDTAVYYCATSGYDLYFDYWGQGTLVTVSS
VL: EIVMTQSPATLSVSPGERATLSCKASQNVGTAVAWYQQKPGQAPRLLIYSAFNRYNGIPARFSGSGPGTDFTLTISSLQSEDFAVYYCQQYSTYPLTFGGGTKVEIKR
modifications: para-acetyl-L-phenylalanine (pAF) at position 114 (Kabat numbering; the X of SEQ ID NO: 3), carrying drug-linker AS269 via an oxime bond
notes: Antibody-drug conjugate: humanized IgG1 mAb with one AS269 drug-linker per heavy chain, DAR about 2; also called ARX305; aCD70-AS269
For orientation: Kd means the constant that tells how readily two partners part at equilibrium. A lower Kd goes with higher affinity. In the case of B1, in series [4], the “Cytotoxic Potency (IC50, nM), 786-O cells (CD70 surface expression 133,000)” value is 0.167 nM; the “Cytotoxic Potency (IC50, nM), C666-1 cells (CD70 surface expression 9,200)” value was more than 10 nM; the “Cytotoxic Potency (IC50, nM), Caki-1 cells (CD70 surface expression 107,000)” value was 0.125 nM; the “Cytotoxic Potency (IC50, nM), Hs 611.T cells (CD70 surface expression 6,600)” value is more than 10 nM. Further, in series [4], the “Cytotoxic Potency (IC50, nM), Hs766T cells (CD70 surface expression 9,500)” value was more than 10 nM; the “Cytotoxic Potency (IC50, nM), KMS11 cells (CD70 surface expression 9,400)” value was more than 10 nM; the “Cytotoxic Potency (IC50, nM), NCI-H40 cells (CD70 surface expression 14,900)” value amounted to 0.18 nM; the “Cytotoxic Potency (IC50, nM), NCI-H929 cells (CD70 surface expression 0)” value was more than 10 nM. In series [4], the “Cytotoxic Potency (IC50, nM), REC-1 cells (CD70 surface expression 17,300)” value was 0.18 nM; the “Cytotoxic Potency (IC50, nM), Raji cells (CD70 surface expression 17,700)” value is more than 10 nM; the “Cytotoxic Potency (IC50, nM), U251MG cells (CD70 surface expression 65,800)” value was 0.04 nM; the “Cytotoxic Potency (IC50, nM), U266 cells (CD70 surface expression 65,000)” value was 0.025 nM. Besides, in the series with cynomolgus CD70 protein [5], the equilibrium dissociation constant (Kd) stood at 684 pM. Also, the Kd with human CD70 protein is 228 pM. The binding result with mouse CD70 protein is “no binding”. The “fold difference of affinity between human and cynomolgus CD70” value with cynomolgus CD70 protein [6] is not above 3 fold.

(Values after patent US20260224721A1, “ANTI-CD70 ANTIBODY-DRUG CONJUGATES” (Ambrx, Inc., priority 2023, published 2026).)
